From paper PMC3310397

Legend:
[1] = molecular target: Tf receptor on Caco-2 cells (human (endogenous in Caco-2)) (UniProt P02786); experiment: radioligand binding
[2] = molecular target: G-CSF receptor on NFS-60 cells (mouse (endogenous in NFS-60)) (UniProt P40223); experiment: radioligand binding
UniProt P40223, sequence (P40223 26-837): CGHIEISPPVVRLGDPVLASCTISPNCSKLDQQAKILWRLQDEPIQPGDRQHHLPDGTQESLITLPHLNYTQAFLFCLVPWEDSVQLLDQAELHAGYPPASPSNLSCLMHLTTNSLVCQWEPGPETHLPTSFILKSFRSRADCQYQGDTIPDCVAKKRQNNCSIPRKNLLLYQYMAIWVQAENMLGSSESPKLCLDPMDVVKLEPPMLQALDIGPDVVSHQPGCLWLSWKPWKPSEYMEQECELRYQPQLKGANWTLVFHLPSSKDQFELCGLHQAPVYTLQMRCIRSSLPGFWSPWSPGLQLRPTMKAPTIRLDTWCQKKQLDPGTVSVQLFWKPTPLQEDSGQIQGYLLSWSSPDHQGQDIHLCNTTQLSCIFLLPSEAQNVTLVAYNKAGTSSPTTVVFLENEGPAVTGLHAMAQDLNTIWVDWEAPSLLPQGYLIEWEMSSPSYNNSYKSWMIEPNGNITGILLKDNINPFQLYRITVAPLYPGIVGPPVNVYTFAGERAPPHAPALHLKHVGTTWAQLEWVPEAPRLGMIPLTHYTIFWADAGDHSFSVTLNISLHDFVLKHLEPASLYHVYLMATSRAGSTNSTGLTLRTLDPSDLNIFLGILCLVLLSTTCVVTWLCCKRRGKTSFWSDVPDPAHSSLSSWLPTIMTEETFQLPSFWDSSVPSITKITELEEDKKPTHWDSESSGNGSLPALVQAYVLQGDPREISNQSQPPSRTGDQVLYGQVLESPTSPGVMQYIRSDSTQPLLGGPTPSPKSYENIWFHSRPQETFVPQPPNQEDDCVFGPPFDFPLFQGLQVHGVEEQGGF

UniProt P02786, sequence (P02786 whole entry): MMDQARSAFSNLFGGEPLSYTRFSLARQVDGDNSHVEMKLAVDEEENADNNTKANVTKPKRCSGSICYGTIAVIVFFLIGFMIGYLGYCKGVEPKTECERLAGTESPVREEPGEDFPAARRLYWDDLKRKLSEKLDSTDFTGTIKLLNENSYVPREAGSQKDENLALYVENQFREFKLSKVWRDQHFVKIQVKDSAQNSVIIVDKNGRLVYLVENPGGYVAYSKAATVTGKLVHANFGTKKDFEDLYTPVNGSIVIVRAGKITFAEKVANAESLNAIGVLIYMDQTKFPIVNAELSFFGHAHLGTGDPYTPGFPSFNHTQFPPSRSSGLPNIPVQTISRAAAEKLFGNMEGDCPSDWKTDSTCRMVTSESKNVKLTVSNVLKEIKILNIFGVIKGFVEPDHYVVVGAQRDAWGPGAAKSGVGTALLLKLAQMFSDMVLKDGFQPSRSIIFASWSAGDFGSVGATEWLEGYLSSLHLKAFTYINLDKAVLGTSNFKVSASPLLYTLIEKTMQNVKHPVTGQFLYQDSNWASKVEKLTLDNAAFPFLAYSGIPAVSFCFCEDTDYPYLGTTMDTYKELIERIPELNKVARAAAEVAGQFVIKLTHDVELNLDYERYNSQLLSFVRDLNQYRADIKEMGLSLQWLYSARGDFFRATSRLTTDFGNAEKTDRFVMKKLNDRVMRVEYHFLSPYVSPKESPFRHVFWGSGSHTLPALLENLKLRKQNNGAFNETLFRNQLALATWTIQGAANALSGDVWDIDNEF

Substance | IC50 [1] [nM] | IC50 [2] [nM]
GH-LE-Tf fusion protein (dipeptide linker) | 21.2 | 
recombinant human G-CSF, aglycosylated (Neupogen) (from UniProt P09919-2 31-204) (ligand) |  | 113
G-CSF-LE-Tf fusion protein (dipeptide linker) | 7.5 | 38
